Legend:
Assay in all cases: cell-based or functional assay
[1] = target: murine B7-1 (CD80) expressed on MC38 cells infected with rV-B7-1 (murine) (UniProt Q00609)
[2] = target: murine LFA-3 (CD48) expressed on MC38 cells infected with rV-LFA-3 (murine) (UniProt P18181)
[3] = target: murine ICAM-1 (CD54) expressed on MC38 cells infected with rV-ICAM-1 (murine) (UniProt P13597)

Q: “Hamster anti-murine CD80 (B7-1; clone 16-10A1) (antibody)” was tested. Which inhibition of the increased T-cell proliferation supported by MC38/B7-1 (Con A, 3H-thymidine) [1] did it give?
A: The inhibition of the increased T-cell proliferation supported by MC38/B7-1 (Con A, 3H-thymidine) was 83%.

Q: How did the reduction of the increased T-cell proliferation supported by MC38/LFA-3 (Con A, 3H-thymidine) [2] turn out when “Hamster anti-murine CD48 (BCM-1 clone HM48-1) (antibody)” was run?
A: The reduction of the increased T-cell proliferation supported by MC38/LFA-3 (Con A, 3H-thymidine) was 98%.

Q: With “Hamster anti-murine CD54 (ICAM-1; clone 3E2) (antibody)” as the substance, how does the reduction of the increased T-cell proliferation supported by MC38/ICAM-1 (Con A, 3H-thymidine) [3] read?
A: Its reduction of the increased T-cell proliferation supported by MC38/ICAM-1 (Con A, 3H-thymidine) is 88%.

— patent publication US20070048860A1
